According to patent US20220315554A1, “COMPOUNDS COMPRISING A […] LIGAND AND USE THEREOF” (priority 2019, published 2022):

Legend:
[1] = biological target: human fibroblast activation protein (FAP) on FAP-expressing human WI-38 fibroblasts (human); experiment: competition FACS, WI-38 cells, vs Cy5-labeled compound; D: pIC50 ≤6.0
[2] = biological target: T1, Recombinant human FAP (R&D systems, #3715-SE) (human)
T1 sequence: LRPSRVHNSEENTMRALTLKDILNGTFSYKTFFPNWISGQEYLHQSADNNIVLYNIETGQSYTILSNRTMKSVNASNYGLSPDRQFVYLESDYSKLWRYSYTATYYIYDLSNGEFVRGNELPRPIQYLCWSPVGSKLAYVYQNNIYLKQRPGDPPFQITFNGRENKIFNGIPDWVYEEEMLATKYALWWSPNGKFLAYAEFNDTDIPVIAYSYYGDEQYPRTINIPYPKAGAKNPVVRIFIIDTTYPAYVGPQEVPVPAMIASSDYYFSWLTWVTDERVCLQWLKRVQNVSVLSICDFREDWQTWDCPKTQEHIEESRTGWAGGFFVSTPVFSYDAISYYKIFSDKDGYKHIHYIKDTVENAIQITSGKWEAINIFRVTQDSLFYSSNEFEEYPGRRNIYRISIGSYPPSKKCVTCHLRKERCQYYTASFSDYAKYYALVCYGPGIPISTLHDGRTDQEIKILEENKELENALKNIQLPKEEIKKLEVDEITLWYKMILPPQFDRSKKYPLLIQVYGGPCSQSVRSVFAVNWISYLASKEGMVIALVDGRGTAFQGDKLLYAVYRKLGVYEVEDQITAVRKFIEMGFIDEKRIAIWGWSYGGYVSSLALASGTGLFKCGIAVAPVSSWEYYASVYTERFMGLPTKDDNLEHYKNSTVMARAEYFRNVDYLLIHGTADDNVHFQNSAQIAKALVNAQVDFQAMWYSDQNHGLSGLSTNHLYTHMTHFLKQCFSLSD

[3] = biological target: Recombinant human DPP4 (R&D systems, #9168-SE) (human)
[4] = biological target: recombinant human PREP (R&D systems, #4308-SE) (human)
[5] = biological target: delta (DOP) (h) (human (printed (h))) (UniProt P41143); experiment: radioligand displacement, reference compound of the panel
[6] = biological target: human fibroblast activation protein (FAP) on FAP-expressing human WI-38 fibroblasts (human); experiment: competition FACS, WI-38 cells, vs Cy5-labeled compound; A: pIC50 >8.0
[7] = biological target: Lck kinase (h) (human (printed (h))) (UniProt P06239)
[8] = biological target: PDE3A (h) (human (printed (h))) (UniProt Q14432)
[9] = biological target: PDE4D2 (h) (human (printed (h))) (UniProt Q08499)
PDE4D2 (h) (human (printed (h))), sequence (Q08499 303-809): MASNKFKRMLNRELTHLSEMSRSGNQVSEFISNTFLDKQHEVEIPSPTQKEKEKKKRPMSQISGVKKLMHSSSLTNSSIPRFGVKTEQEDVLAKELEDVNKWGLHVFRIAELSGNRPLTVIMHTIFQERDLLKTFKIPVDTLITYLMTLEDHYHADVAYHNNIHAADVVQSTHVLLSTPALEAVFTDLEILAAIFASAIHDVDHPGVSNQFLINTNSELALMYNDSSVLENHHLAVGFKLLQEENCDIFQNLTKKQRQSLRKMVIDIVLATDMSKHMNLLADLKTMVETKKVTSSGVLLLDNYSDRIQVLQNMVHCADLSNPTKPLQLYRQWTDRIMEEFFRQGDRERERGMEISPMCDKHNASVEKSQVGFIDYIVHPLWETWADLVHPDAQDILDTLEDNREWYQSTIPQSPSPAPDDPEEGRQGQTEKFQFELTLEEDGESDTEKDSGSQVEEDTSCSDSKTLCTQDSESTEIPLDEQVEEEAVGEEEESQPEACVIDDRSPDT

[10] = biological target: COX1(h) (human (printed (h))) (UniProt P23219)
COX1(h) (human (printed (h))), sequence (P23219 24-599 limits assumed): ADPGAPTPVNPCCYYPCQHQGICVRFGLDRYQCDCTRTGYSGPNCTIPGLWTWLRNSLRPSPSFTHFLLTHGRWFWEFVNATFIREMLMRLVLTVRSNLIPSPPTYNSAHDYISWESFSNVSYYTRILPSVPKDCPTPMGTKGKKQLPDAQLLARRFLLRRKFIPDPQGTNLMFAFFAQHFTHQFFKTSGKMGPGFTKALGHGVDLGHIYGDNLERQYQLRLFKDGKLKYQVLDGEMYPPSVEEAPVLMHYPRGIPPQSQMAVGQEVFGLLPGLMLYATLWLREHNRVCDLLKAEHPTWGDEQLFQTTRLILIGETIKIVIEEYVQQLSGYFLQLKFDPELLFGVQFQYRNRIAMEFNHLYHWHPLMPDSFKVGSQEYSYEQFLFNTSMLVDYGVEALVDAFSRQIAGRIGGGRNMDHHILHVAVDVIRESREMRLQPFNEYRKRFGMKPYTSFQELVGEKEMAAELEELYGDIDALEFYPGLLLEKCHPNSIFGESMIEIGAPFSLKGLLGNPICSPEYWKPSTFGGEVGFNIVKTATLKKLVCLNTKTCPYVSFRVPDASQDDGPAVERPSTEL

[11] = biological target: Acetylcholinesterase (h) (human (printed (h))) (UniProt P22303)
[12] = biological target: T2, COX2(h) (human (printed (h))) (UniProt P35354)
T2 sequence: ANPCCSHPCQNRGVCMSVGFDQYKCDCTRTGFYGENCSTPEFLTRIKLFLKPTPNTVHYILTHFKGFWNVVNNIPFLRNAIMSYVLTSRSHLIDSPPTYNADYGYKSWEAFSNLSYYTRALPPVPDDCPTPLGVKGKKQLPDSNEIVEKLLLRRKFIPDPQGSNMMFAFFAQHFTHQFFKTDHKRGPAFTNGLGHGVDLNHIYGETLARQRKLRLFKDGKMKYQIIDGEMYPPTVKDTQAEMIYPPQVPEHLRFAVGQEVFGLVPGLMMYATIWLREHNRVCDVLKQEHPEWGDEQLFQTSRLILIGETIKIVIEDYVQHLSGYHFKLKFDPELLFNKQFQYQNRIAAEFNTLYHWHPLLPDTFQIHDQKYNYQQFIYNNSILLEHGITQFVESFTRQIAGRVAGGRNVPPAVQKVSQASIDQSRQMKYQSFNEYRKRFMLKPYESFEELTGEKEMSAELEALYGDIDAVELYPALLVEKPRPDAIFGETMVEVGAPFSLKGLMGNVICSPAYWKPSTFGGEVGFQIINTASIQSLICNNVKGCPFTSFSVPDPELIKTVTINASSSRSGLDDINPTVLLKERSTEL

[13] = biological target: KV channel; experiment: radioligand displacement, 10 uM compound
[14] = biological target: Na+ channel (site 2); experiment: radioligand displacement, 10 uM compound
[15] = biological target: MAO-A; experiment: radioligand displacement, 10 uM compound
[16] = biological target: Ca2+ channel (L, dihydropyridine site); experiment: radioligand displacement, 10 uM compound
[17] = biological target: BZD (central); experiment: radioligand displacement, 10 uM compound
[18] = biological target: NMDA; experiment: radioligand displacement, 10 uM compound

Row | Substance | pIC50 Category (FACS) [1] | pIC50 Category (Activity) [2] | pIC50 Category (FACS) [6] | other results
1 | DOTA-Ttds-Hci-[Cys(3MeBn)-Pro-Pro-Thr-Gln-Phe-Cys]-Bal-OH (peptide) | < 6 pIC50 | < 6 pIC50 | – | –
2 | DOTA-Ttds-Hgl-[Cys(3MeBn)-Pro-Pro-Thr-Gln-Phe-Cys]-Bal-OH (peptide) | < 6 pIC50 | – | – | –
3 | DOTA-Ttds-Nle-[Cys(3MeBn)-Pro-Pro-Thr-Gln-Phe-Cys]-Bal-OH (3BP-3398) (peptide) | – | – | – | pIC50 (DPP4) [3]: < 6 pIC50; pIC50 (PREP) [4]: < 6 pIC50
4 | DOTA-Ttds-Nle-[Cys(3MeBn)-Pro-Pro-Thr-Glu-Phe-Cys]-Asp-His-Phe-Arg-Asp-NH2 (3BP-3168) (peptide) | – | – | – | pIC50 (DPP4) [3]: < 6 pIC50; pIC50 (PREP) [4]: < 6 pIC50
5 | DOTA-Ttds-Nle-[Cys(3MeBn)-Pro-Pro-Thr-Glu-Phe-Cys]-Asp-NH2 (3BP-3320) (peptide) | – | – | – | pIC50 (DPP4) [3]: < 6 pIC50; pIC50 (PREP) [4]: < 6 pIC50
6 | DOTA-Ttds-Nle-[Cys(3MeBn)-Pro-Pro-Thr-Glu-Phe-Cys]-Asp-Pamb-Arg-NH2 (3BP-3321) (peptide) | – | – | – | pIC50 (DPP4) [3]: < 6 pIC50; pIC50 (PREP) [4]: < 6 pIC50
7 | DOTA-Ttds-Nle-[Cys(3MeBn)-Pro-Pro-Thr-Glu-Phe-Cys]-NH2 (3BP-3319) (peptide) | – | – | – | pIC50 (DPP4) [3]: < 6 pIC50; pIC50 (PREP) [4]: 6.2 pIC50
8 | DPDPE (peptide) | – | – | – | Ki [5]: 1.2 nM
9 | H-Met-[Cys(3MeBn)-Pro-Pro-Thr-Glu-Phe-Cys]-Asp-His-Phe-Arg-Asp-Ttds-Lys(Bio)-NH2 (3BP-2881) (peptide) | – | – | – | pIC50 (DPP4) [3]: < 6 pIC50; pIC50 (PREP) [4]: < 6 pIC50
10 | Hex-[Cys(3MeBn)-Pro-4Dfp-Thr-Glu-Phe-Cys]-NH2 (peptide) | < 6 pIC50 | – | – | –
11 | Hex-[Cys(3MeBn)-Pro-Eay-Thr-Glu-Phe-Cys]-NH2 (peptide) | < 6 pIC50 | – | – | –
12 | Hex-[Cys(3MeBn)-Pro-Pro-Opc-Glu-Phe-Cys]-NH2 (peptide) | < 6 pIC50 | – | – | –
13 | Hex-[Cys(3MeBn)-Pro-Pro-Orn(Ac)-Glu-Phe-Cys]-NH2 (peptide) | < 6 pIC50 | – | – | –
14 | Hex-[Cys(3MeBn)-Pro-Pro-Thr-Gln-Phe-Cys]-Bhk(DOTA)-OH (3BP-3397) (peptide) | – | – | – | pIC50 (DPP4) [3]: < 6 pIC50; pIC50 (PREP) [4]: < 6 pIC50
15 | Hex-[Cys(3MeBn)-Pro-Pro-Thr-Glu-Bip-Cys]-NH2 (peptide) | < 6 pIC50 | < 6 pIC50 | – | –
16 | Hex-[Cys(3MeBn)-Pro-Pro-Thr-Glu-Nmf-Cys]-NH2 (peptide) | < 6 pIC50 | – | – | –
17 | Hex-[Cys(3MeBn)-Pro-Pro-Thr-Glu-Nphe-Cys]-NH2 (peptide) | < 6 pIC50 | < 6 pIC50 | – | –
18 | Hex-[Cys(3MeBn)-Pro-Pro-Thr-Glu-Phe-Cys]-Asp-His-Nmf-Arg-Ttds-Lys(DOTA)-NH2 (3BP-3275) (peptide) | – | – | – | pIC50 (DPP4) [3]: < 6 pIC50; pIC50 (PREP) [4]: < 6 pIC50
19 | Hex-[Cys(3MeBn)-Pro-Pro-Thr-Glu-Phe-Cys]-Asp-His-Phe-Arg-Asp-Ttds-Lys(DOTA)-NH2 (3BP-3105) (peptide) | – | – | – | pIC50 (DPP4) [3]: < 6 pIC50; pIC50 (PREP) [4]: < 6 pIC50
20 | Hex-[Cys(3MeBn)-Pro-Pro-Thr-Glu-Phe-Cys]-Asp-Pamb-Arg-NH2 (peptide) | – | > 8 pIC50 | > 8 pIC50 | –
21 | Hex-[Cys(3MeBn)-Pro-Pro-Thr-Glu-Phe-Cys]-Asp-Ttds-Lys(DOTA)-NH2 (peptide) | – | > 8 pIC50 | > 8 pIC50 | –

Row | Substance | pIC50 Category (FACS) [1] | pIC50 Category (Activity) [2] | pIC50 Category (FACS) [6] | other results
22 | Hex-[Cys(3MeBn)-Pro-Pro-Thr-Glu-Phe-Pen]-NH2 (peptide) | < 6 pIC50 | – | – | –
23 | Hex-[Cys(3MeBn)-Pro-Pro-Thr-Glu-Tic-Cys]-NH2 (peptide) | < 6 pIC50 | – | – | –
24 | Hex-[Cys(3MeBn)-Pro-Pro-Thr-Moo-Phe-Cys]-NH2 (peptide) | < 6 pIC50 | < 6 pIC50 | – | –
25 | Hex-[Cys(3MeBn)-Pro-Pro-Thr-Nme-Phe-Cys]-NH2 (peptide) | < 6 pIC50 | < 6 pIC50 | – | –
26 | Hex-[Cys(3MeBn)-Pro-Tap-Thr-Glu-Phe-Cys]-NH2 (peptide) | < 6 pIC50 | – | – | –
27 | Hex-[Cys(tMeBn(DOTA-AET))-Nmg-Pro-Thr-Gln-Phe-Cys]-OH (peptide) | – | > 8 pIC50 | > 8 pIC50 | –
28 | Hex-[Cys(tMeBn(DOTA-AET))-Pro-Hyp-Thr-Gln-Phe-Cys]-OH (peptide) | – | > 8 pIC50 | > 8 pIC50 | –
29 | Hex-[Cys(tMeBn(DOTA-AET))-Pro-Pro-Thr-Gln-1Ni-Cys]-OH (peptide) | – | > 8 pIC50 | > 8 pIC50 | –
30 | Hex-[Cys(tMeBn(DOTA-AET))-Pro-Pro-Thr-Gln-Mpa-Cys]-OH (peptide) | – | > 8 pIC50 | > 8 pIC50 | –
31 | Hex-[Cys(tMeBn(DOTA-AET))-Pro-Pro-Thr-Gln-Otf-Cys]-OH (peptide) | – | > 8 pIC50 | > 8 pIC50 | –
32 | Hex-[Cys(tMeBn(DOTA-AET))-Pro-Pro-Thr-Gln-Phe-AET] (peptide) | – | > 8 pIC50 | > 8 pIC50 | –
33 | Hex-[Cys(tMeBn(DOTA-AET))-Pro-Pro-Thr-Gln-Phe-Cys]-Bal-OH (peptide) | – | > 8 pIC50 | > 8 pIC50 | –
34 | Hex-[Cys(tMeBn(DOTA-AET))-Pro-Pro-Thr-Gln-Phe-Cys]-Bhf-OH (peptide) | – | > 8 pIC50 | > 8 pIC50 | –
35 | Hex-[Cys(tMeBn(DOTA-AET))-Pro-Pro-Thr-Gln-Phe-Cys]-Gab-OH (peptide) | – | > 8 pIC50 | > 8 pIC50 | –
36 | Hex-[Cys(tMeBn(DOTA-AET))-Pro-Pro-Thr-Gln-Phe-Cys]-Gly-OH (peptide) | – | > 8 pIC50 | > 8 pIC50 | –
37 | Hex-[Cys(tMeBn(DOTA-AET))-Pro-Pro-Thr-Gln-Phe-Cys]-Nmg-OH (peptide) | – | > 8 pIC50 | > 8 pIC50 | –
38 | Hex-[Cys(tMeBn(DOTA-AET))-Pro-Pro-Thr-Gln-Phe-Cys]-OH (3BP-3554) (peptide) | – | – | – | % inhibition of control enzyme activity [7]: -4%; % inhibition of control enzyme activity [8]: -37%; % inhibition of control enzyme activity [9]: -4%; % inhibition of control enzyme activity [10]: 8%; % inhibition of control enzyme activity [11]: 1%; % inhibition of control enzyme activity [12]: -22%; % Inhibition of Specific Binding [13]: 4%; % Inhibition of Specific Binding [14]: 14%; % Inhibition of Specific Binding [15]: -25%; % Inhibition of Specific Binding [16]: 54%; % Inhibition of Specific Binding [17]: 5%; % Inhibition of Specific Binding [18]: 1%
39 | Hex-[Cys(tMeBn(DOTA-PP))-Pro-Pro-Thr-Gln-Phe-Cys]-Asp-NH2 (3BP-3407) (peptide) | – | – | – | pIC50 (DPP4) [3]: < 6 pIC50; pIC50 (PREP) [4]: < 6 pIC50; % inhibition of control enzyme activity [7]: 10%; % inhibition of control enzyme activity [8]: -3%; % inhibition of control enzyme activity [9]: -5%; % inhibition of control enzyme activity [10]: 10%; % inhibition of control enzyme activity [11]: -6%; % inhibition of control enzyme activity [12]: -14%; % Inhibition of Specific Binding [13]: -5%; % Inhibition of Specific Binding [14]: -7%; % Inhibition of Specific Binding [15]: -5%; % Inhibition of Specific Binding [16]: 42%; % Inhibition of Specific Binding [17]: -9%; % Inhibition of Specific Binding [18]: 9%
40 | Hex-[Cys(tMeBn(InDOTA-AET))-Pro-Pro-Thr-Gln-Phe-AET] (peptide) | – | > 8 pIC50 | > 8 pIC50 | –
41 | [3MeBn-Spa-Pro-Pro-Thr-Gln-Phe-Cys]-Asp-NH2 (3BP-3419) (peptide) | – | – | – | pIC50 (DPP4) [3]: < 6 pIC50; pIC50 (PREP) [4]: < 6 pIC50
